One molecule from patent US20250145716A1 (RAKUTEN MEDICAL, published 2025) can be followed below.

For one experiment, the target named is T1, 6xHis-tagged cyPD-L1 (cynomolgus monkey, UniProt Q9NZQ7 19-238 (human entry)).
T1 construct: The assay text says only '6xHis-tagged cyPD-L1'; also called cynomolgus PD-L1; not shown: 6xHis tag
Description: ELISA, plate-coated 6xHis cyPD-L1, OD 450 nm. Here is the method:
(§1) Hybridoma supernatants were tested for binding to huPD-L1, cyPD-L1, and muPD-L1 by ELISA. Briefly, 30 μL 6xHis-tagged huPD-L1, cyPD-L1, or muPD-L1 (1 μg/mL in PBS) were immobilized in wells of a 96-well assay plate overnight at 4° C. After washing and blocking steps, 30 μL of antibody supernatant were added to the plate and incubated at room temperature for 1 hr. Bound human antibody was detected using horseradish peroxidase (HRP)-conjugated goat anti-human Fc (Invitrogen Cat. No. 109-035-097; diluted 1:5000) or goat anti-mouse Fc HRP (Invitrogen Cat. No. 115-035-071) as a control. Bound antibody was detected with 1-Step Ultra™ TMB-ELISA Substrate (ThermoFisher Scientific Cat. No. 34029). When the reaction was complete the reaction was stopped, and the plate was read at 450 nm.
Anti-PD-L1 antibodies, described in Example 1A and manufactured substantially as described in Example 1B, were tested for to huPD-L1 and cyPD-L1 by ELISA substantially as described in Example 1A, using 12 dilutions of antibody ranging from 1 ng/ml to 3 mg/mL.
(An ELISA detects its analyte on a solid surface through an enzyme-linked reagent.)

For experiment [1], the target named is T2, human PD-L1 expressed on cells (human, UniProt Q9NZQ7 19-290).
T2 construct: whole, on cells; One entry covers all human PD-L1-bearing cells; also called huPD-L1 on CHO cells (CHO-hPD-L1); PD-L1 on A431 cells
T2 sequence (Q9NZQ7 19-290): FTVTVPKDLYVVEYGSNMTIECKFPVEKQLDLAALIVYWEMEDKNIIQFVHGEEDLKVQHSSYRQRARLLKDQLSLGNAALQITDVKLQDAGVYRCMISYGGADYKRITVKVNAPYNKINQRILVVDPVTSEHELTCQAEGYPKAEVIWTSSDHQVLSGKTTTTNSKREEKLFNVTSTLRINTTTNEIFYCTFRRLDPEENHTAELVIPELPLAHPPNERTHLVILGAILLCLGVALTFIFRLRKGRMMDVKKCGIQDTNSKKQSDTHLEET
Nature of the experiment: flow cytometry on unstimulated A431 cells, ratio of EC50 values. The procedure:
(§2) Approximately 2.5×10⁵ A431 squamous cell carcinoma cells were plated in a final volume of 50 μL FACS buffer (phosphate buffered saline, 1% fetal bovine serum, 5 mM EDTA) in 96-well plates. 50 μL 2× Zombie Violet (BioLegend) were added to each well, and the plates were incubated 20-30 minutes at room temperature, protected from light. After incubation, 150 μL FACS buffer were added to each well. The plates were centrifuged at 500×g for 5 minutes. The supernatant was removed, and the cell pellet were resuspended in 200 μL FACS buffer. The wash procedure was repeated for a total of 2-3 washes. […] After the cells were incubated with the primary anti-PD-L1 antibody 1 hour on ice, protected from light, 150 μL FACS buffer were added to each well. The plates were then centrifuged, the supernatant was removed, and the cells were resuspended in 250 μL FACS buffer three times. After the third wash, the cells were resuspended in 100 μL goat anti-human IgG-Alexa Fluor 488 secondary antibody, and incubated for 30 minutes on ice, protected from light. After 3 washes as previously described, the cells were resuspended in 200 μL FACS buffer. The cells were then analyzed using a CytoFLEX flow cytometer.

Experiment [2] deals with T2, human PD-L1 expressed on cells. Description: flow cytometry on unstimulated A431 cells (MFI against antibody concentration). The procedure: as §2
Experiment [3] addresses T3, PD-L1-His (Acro Cat PDL-H5229) (human, UniProt Q9NZQ7 19-238).
T3 construct: also called human PD-L1 (SPR analyte); not shown: His tag
Nature of the experiment: SPR (Biacore 4000), antibody captured on anti-human CM4 chip, PD-L1-His analyte, 25° C. The procedure: (§3) The binding affinities of the generated antibodies to human PD-L1 were determined by surface plasmon resonance. […] PD-L1-His (Acro Cat PDL-H5229) was tested for binding in a 3-fold titration series up to 100 nM. Data were collected in HBS-P (pH 7.4) at 37° C. and 25° C.
Background: In SPR one partner is held on a chip, and binding of the other changes the refractive index at the surface.

The target of experiment [4] is T3, PD-L1-His (Acro Cat PDL-H5229). Description: SPR (Biacore 4000), antibody captured on anti-human CM4 chip, PD-L1-His analyte, 37° C. The procedure: as §3
Another experiment addresses T4, 6xHis-tagged huPD-L1 (human, UniProt Q9NZQ7 19-238).
T4 construct: also called human PD-L1 (RD Systems 9049-B7); extracellular domain of human PD-L1 fused to a His tag; not shown: 6xHis tag
Description: ELISA, plate-coated human PD-L1 (1 µg/mL), OD 450 nm, B7 ligand specificity panel. Here is the method:
as §1
(§4) Briefly, wells of a 96-well plate (Corning 3690) were incubated with 30 μL human PD-L1 (RD Systems 9049-B7), human PD-L2 (RD Systems 9075-PL), human B7-1/CD80 (RD Systems 9050-B1), human B7-2/CD86 (RD Systems 9090-B2), human B7-H2 (RD Systems 8206-B7), or human B7-H3 (RD Systems 1949-B3), at a concentration of 1 μg/mL in PBS, overnight at 4C, to coat the wells with ligand. After washing and blocking steps, 30 μL of antibody at 8 concentrations ranging from 1 ng/mL to 3 mg/mL were added to the plate and incubated at room temperature for 1 hr. Bound human antibody was detected as described above.

Experiment [5] concerns the target T5, human B7-1/CD80 (RD Systems 9050-B1) (human, UniProt P33681 35-242).
T5 sequence (looked up): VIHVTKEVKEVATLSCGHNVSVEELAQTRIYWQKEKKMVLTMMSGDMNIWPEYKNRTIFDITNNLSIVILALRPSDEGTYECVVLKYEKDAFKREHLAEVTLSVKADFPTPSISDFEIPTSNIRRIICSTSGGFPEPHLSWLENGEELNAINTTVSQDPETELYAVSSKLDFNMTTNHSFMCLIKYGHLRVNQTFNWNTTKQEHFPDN
Description: ELISA, plate-coated human B7-1/CD80 (1 µg/mL), OD 450 nm, B7 ligand specificity panel. The procedure: as §1, §4

The target of experiment [6] is T6, human B7-2/CD86 (RD Systems 9090-B2) (human, UniProt P42081 24-247, limits assumed).
T6 sequence (looked up): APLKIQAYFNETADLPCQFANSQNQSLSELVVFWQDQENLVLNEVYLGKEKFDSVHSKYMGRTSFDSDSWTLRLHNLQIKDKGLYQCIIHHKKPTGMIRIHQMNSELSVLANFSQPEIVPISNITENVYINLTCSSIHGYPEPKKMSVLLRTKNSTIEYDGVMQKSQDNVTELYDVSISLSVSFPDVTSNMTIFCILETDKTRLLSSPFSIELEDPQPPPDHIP
Description: ELISA, plate-coated human B7-2/CD86 (1 µg/mL), OD 450 nm, B7 ligand specificity panel. The procedure:
as §1, §4

Usually EC50 stands for the concentration needed to bring the measured effect to its halfway point. Read a low EC50 as greater potency. As a reminder, the Kd is the free concentration of one partner at which half of the binding sites on the other are occupied at equilibrium, for simple one-to-one binding. A low value points to tighter binding. What is called koff is a measure of how fast the partners let go of each other. Low readings indicate a long-lived complex, high ones a short-lived complex. A word on the kon: it is a measure of how fast the partners come together. A higher kon goes with faster complex formation.

T3 sequence (Q9NZQ7 19-238 limits assumed): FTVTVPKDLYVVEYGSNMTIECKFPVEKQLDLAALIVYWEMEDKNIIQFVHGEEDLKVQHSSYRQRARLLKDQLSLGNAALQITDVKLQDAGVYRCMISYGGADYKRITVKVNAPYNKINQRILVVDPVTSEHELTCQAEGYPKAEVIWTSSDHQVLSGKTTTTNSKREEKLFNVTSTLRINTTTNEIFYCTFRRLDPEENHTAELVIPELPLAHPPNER
T4 sequence (Q9NZQ7 19-238): as the sequence (Q9NZQ7 19-238 limits assumed) above
T1 sequence (Q9NZQ7 other isoform, or with tags, fused parts or gaps): as the sequence (Q9NZQ7 19-238 limits assumed) above, with A33T, A34S, S62N, R68Q, Q82R, F173L, T185A, T192I, H215L counted along it

B1: 1P9 (antibody, V domains shown)
VH: EVQLVESGGGLVQPGGSLRLSCAASGFTFSTYWMSWVRQAPGKGLEWVANIKQDGGERYYVDSVKGRFTISRDNAKSSLYLQMNSLRAEDTALYYCARLRLYSDYEDYWGQGTLVTVSS
VL: DIQMTQSPSSVSASVGDRVTITCRASQGISSWLAWYQQKPGKAPKLLIYSVSSLQSGVPSRFSGSGSGTDFTLTISSLQPEDSATYYCQQANSLPPTFGGGTKVEIK
notes: Recombinant full-length human antibody expressed in CHO K1 GS KO cells, with wild-type human Fc; also called anti-PD-L1 antibody 1P9; Unconj; 1P9
On to B1, for which the EC50 with 6xHis-tagged cyPD-L1 stood at 0.0338 µg/mL; in experiment [2] it was 0.0159 µg/mL; with 6xHis-tagged huPD-L1, 0.0953 µg/mL; in experiment [5], 5.31 µg/mL; in experiment [6], 1.14 µg/mL. Besides, the “fold potency against avelumab” value in experiment [1] was found to be 3.5 fold. In addition, the dissociation constant (Kd) in experiment [3] amounted to 0.27 nM; in experiment [4], 1.1 nM. The dissociation rate constant (koff) stood at 5.1e-05 s⁻¹ in experiment [3] and 0.00037 s⁻¹ in experiment [4]. The on-rate (kon) worked out at 190000 M⁻¹ s⁻¹ in experiment [3] and 330000 M⁻¹ s⁻¹ in experiment [4].
